Results on ten substances are retold here after publication PMC10150588 (Journal of chemical information and modeling, 2023).

The target of assay [1] is NSD3 short peptide (Homo sapiens) (UniProt Q9BZ95). The settings on record: cited from earlier work.
The target of assay [2] is BRG1 peptide (Homo sapiens) (UniProt P51532). The settings on record: cited from earlier work.
Assay [3] addresses CHD4 peptide (Homo sapiens) (UniProt Q14839). Conditions: cited from earlier work.
In assay [4] the target is JMJD6 peptide (Homo sapiens) (UniProt Q6NYC1). The settings on record: cited from earlier work.
Assay [5] addresses LANA peptide (Human herpesvirus 8) (UniProt Q9QR71). Conditions: cited from earlier work.
The target in assay [6] is T1, BRD3 ET (Homo sapiens, UniProt Q15059). The settings on record: cited from earlier work.
Assay [7] deals with T1, BRD3 ET. The settings on record: cited from earlier work. This is another data set of the same source.
The target in assay [8] is BRD4 ET (Homo sapiens) (UniProt O60885). The settings on record: cited from earlier work.
The next assay has as its target BRD3-ET. Conditions: cited from earlier work.
The test system of a further assay is BRD4-ET. Conditions: cited from earlier work.
In assay [9] the target is BRD4 ET (Homo sapiens) (UniProt O60885). Conditions: cited from earlier work. This is another data set of the same source.
Assay [10] deals with T1, BRD3 ET. The experiment in a line: Isothermal titration calorimetry, peptide binding to BRD3 ET. Also noted: species or system murine. Conditions: ITC, 20 mM Tris, 150 mM NaCl, 1 mM TCEP. Background: Isothermal titration calorimetry measures the heat released or taken up as one component is titrated into another.

“And” between values parts separate entries of the source, which are not always exact repeats. Equal values may be shown once. Read-outs that look alike come from different tables or passages of the source. No end group written: not given here.

T1 sequence (Q15059 554-640): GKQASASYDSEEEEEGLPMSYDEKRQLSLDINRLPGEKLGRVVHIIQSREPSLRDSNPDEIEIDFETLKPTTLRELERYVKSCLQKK
BRD3 ET (from UniProt Q15059), sequence (Q15059 562-644): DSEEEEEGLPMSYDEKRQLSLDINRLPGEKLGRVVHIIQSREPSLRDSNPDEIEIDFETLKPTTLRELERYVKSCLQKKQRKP
BRG1 peptide (Homo sapiens), sequence (P51532 whole entry): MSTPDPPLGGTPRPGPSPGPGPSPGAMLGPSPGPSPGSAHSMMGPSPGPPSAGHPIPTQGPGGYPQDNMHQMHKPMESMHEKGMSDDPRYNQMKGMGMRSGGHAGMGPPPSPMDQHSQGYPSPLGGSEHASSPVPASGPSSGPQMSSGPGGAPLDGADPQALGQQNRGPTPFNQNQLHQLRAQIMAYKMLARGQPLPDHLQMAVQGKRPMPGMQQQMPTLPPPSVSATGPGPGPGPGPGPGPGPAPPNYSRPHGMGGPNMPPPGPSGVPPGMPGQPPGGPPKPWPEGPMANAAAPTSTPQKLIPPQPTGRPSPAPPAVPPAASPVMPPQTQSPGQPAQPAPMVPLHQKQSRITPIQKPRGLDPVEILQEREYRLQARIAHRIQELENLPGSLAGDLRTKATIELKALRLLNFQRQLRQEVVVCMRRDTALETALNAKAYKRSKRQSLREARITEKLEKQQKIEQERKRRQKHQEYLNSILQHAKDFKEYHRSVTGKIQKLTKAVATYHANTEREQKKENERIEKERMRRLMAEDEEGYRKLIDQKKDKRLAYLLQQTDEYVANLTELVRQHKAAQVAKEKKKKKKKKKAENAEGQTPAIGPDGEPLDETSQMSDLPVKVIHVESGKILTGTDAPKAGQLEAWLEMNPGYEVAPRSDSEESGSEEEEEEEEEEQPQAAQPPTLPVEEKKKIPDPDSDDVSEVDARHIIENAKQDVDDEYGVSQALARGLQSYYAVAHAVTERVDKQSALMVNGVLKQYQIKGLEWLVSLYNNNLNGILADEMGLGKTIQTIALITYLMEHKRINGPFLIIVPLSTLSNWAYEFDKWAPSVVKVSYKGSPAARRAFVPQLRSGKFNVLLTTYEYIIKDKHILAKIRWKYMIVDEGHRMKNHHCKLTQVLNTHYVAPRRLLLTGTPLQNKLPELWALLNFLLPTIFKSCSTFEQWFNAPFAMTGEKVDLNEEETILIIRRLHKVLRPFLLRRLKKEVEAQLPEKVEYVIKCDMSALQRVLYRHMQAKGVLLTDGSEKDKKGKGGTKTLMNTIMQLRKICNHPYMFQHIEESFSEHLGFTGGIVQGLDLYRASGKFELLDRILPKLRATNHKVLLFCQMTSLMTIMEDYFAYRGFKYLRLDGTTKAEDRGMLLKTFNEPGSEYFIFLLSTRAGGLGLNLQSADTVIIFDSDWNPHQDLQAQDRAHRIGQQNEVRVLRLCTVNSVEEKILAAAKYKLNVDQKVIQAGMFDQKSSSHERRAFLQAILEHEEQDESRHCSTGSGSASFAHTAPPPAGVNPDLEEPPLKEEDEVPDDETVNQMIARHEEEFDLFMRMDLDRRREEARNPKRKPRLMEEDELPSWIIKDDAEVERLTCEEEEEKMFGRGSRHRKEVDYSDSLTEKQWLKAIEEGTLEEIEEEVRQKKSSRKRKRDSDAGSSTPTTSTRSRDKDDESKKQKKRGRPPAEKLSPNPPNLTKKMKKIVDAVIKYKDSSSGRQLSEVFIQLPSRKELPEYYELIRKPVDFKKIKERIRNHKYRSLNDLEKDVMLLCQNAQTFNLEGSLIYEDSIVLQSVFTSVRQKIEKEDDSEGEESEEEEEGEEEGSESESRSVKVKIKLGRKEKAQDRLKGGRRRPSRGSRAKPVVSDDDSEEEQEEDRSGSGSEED
LANA peptide (Human herpesvirus 8), sequence (Q9QR71 1-23): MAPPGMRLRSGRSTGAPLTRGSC
NSD3 short peptide (Homo sapiens), sequence (Q9BZ95 whole entry): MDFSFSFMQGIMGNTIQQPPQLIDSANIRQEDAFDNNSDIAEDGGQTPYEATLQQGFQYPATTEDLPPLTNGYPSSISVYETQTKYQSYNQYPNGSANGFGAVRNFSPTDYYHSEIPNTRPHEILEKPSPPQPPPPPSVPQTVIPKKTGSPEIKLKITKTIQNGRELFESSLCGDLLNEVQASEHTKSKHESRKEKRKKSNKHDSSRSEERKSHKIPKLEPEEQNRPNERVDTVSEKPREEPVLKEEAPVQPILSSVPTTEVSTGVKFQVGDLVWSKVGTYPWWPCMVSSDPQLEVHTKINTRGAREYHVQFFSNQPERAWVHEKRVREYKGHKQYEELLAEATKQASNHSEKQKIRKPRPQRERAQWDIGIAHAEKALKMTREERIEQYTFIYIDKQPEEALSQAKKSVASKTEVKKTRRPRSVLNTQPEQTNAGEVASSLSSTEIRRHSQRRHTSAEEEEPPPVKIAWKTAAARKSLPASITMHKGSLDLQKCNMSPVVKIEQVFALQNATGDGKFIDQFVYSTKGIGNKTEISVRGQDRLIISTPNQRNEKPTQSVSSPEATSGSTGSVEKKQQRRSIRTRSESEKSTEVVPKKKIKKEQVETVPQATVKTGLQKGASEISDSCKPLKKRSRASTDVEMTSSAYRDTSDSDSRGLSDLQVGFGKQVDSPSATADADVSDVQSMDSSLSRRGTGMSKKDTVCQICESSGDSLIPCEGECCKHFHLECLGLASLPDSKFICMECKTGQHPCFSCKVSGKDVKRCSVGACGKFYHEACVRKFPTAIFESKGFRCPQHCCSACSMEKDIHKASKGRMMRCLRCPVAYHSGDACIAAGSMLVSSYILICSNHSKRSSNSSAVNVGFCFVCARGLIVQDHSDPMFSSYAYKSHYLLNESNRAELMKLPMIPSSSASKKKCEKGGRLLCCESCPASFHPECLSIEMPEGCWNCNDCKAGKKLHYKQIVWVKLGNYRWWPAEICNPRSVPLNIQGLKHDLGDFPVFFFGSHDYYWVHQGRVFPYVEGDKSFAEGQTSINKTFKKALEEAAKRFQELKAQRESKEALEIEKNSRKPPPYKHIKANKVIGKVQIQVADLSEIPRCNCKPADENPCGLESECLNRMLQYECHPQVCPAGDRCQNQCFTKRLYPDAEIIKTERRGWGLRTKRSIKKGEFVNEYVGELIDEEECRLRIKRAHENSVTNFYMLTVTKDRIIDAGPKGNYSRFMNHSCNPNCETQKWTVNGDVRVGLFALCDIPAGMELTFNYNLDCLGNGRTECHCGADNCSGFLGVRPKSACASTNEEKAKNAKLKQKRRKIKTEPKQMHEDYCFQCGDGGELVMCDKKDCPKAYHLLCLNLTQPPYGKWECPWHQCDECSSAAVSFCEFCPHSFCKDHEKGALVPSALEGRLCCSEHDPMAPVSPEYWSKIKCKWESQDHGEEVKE

In general, Kd refers to the equilibrium constant for the complex coming apart. For BRD3 ET (from UniProt Q15059), the values for the Kd in [1], in assay [2] and in [3] were 950 µM, 7 µM and 95 µM, respectively.
Consider BRD4 ET (from UniProt O60885), for which the results for the Kd in assay [4] and in assay [5] were 160 µM and 635 µM, respectively.
Take BRG1 1591-1602 (from UniProt P51532): in the assay with BRD3 ET [6], the Kd is 7 µM.
For the substance CHD4 290-301 (from UniProt Q14839), the Kd with BRD3 ET [7] is 95 µM.
On to JMJD6 84-96 (from UniProt Q6NYC1), for which the Kd with BRD4 ET (Homo sapiens) [8] was 160 µM.
Consider KVAPLKIKLGGF [CHD4], for which the Kd at BRD3-ET (BRD3-ET) was ~95 µM and < 100 µM.
Regarding KWTLERLKRKYRN [JMJD6], the “relative binding strength” value in the assay with BRD4-ET (BRD4-ET binding of JMJD6 compared with NSD3 and LANA binding BRD3-ET) was “reported to bind BRD4-ET more strongly than NSD3 and LANA bind BRD3-ET”. Besides, the Kd on BRD4-ET (BRD4-ET:JMJD6, 20 °C) was around 160 µM. In the assay on BRD3-ET (BRD3-ET compared with BRD4-ET), the “relative binding to BRD3-ET vs BRD4-ET” value is “weak or no binding”.
With LANA 1098-1116 (from UniProt Q9QR71), in the assay with BRD4 ET (Homo sapiens) [9], the Kd is 635 µM.
Regarding NLQSSIVKFKKPLPLTQPG [LANA], at BRD4-ET (BRD4-ET:LANA), the Kd is around 635 µM.
For the substance SRLTWRVQRSQNPLKIRLTREAP [TP], the Kd on BRD3 ET [10] (pH 7.5, 10 °C) worked out at 0.013 ± 0.01 µM; on BRD3 ET [10] (pH 7.5, 25 °C), 0.09 ± 0.01 µM.
